Substitutions are numbered along the chain they refer to. Read-outs that look alike come from different tables or passages of the source.
B1: 93-VH-6 (VHH)
VHH: EVQLVESGGGLVQPGGSLRLSCAASGFTFTFRHYVMGWFRQAPGKEREFVAAISWSGSGSYYADSVKGRFTISRDNSKNTVYLQMNSLRAEDTAVYYCAADMTTRMSQASREYDYWGQGTLVTVSS
B2: R21448514 (VHH)
VHH: B1 VHH with R32Y, A52D, A109D
notes: ELISA detection with anti-human IgG Fc implies a human Fc part that is not described
B3: R21448504 (VHH)
VHH: B1 VHH with R105E
notes: as for B2
B4: R21448516 (VHH)
VHH: B1 VHH with R32Y, A52D, R105E, A109D, R111D
notes: as for B2
B5: R21448506 (VHH)
VHH: B1 VHH with R111D
notes: as for B2
B6: R21448513 (VHH)
VHH: B1 VHH with R32Y, A52D, R105E
notes: as for B2
B7: R21448515 (VHH)
VHH: B1 VHH with R32Y, A52D, R111D
notes: as for B2
B8: R21448507 (VHH)
VHH: B1 VHH with R32Y, R105E
notes: as for B2
B9: R21448519 (VHH)
VHH: B1 VHH with A109D, R111D
notes: as for B2
B10: R21448502 (VHH)
VHH: B1 VHH with R32Y
notes: as for B2
B11: R21448509 (VHH)
VHH: B1 VHH with R32Y, R111D
notes: as for B2
B12: R21448518 (VHH)
VHH: B1 VHH with R105E, R111D
notes: as for B2
B13: R21448505 (VHH)
VHH: B1 VHH with A109D
notes: as for B2
B14: R21448508 (VHH)
VHH: B1 VHH with R32Y, A109D
notes: as for B2
B15: R21448517 (VHH)
VHH: B1 VHH with R105E, A109D
notes: as for B2
B16: 112-VH47 (VHH)
VHH: EVQLVESGGGLVQPGGSLRLSCAASGFTFSSGTQFSDSKIDWYRQAPGKGLVWVAGIFSTGSTIYEDSVKGRFTISRDNAKNTGYLQMNSLRAEDTAVYYCRVIGRGILAWGQGTLVTVSS
B17: R21560102 (VHH)
VHH: B16 VHH with S59Q
notes: as for B2
B18: R21560103 (VHH)
VHH: B16 VHH with R106I
notes: as for B2
B19: R21560106 (VHH)
VHH: B16 VHH with I40A, I108T
notes: as for B2

How the values were obtained:
[1] = target: T1, human PD-L1 expressed on cells (Raji cells overexpressing human PD-L1; CHO cells) (human, UniProt Q9NZQ7 19-290); test: cell-based or functional assay
human His-PD-L1 [2] = target: T2, human His-PD-L1 (human, UniProt Q9NZQ7 19-238, limits assumed); test: ELISA blocking assay: antibody titrated together with Biotin-PD-1 on coated human His-PD-L1, Streptavidin-HRP, OD450
T2 construct: also called human PD-L1

[3] = target: T1, human PD-L1 expressed on cells (Raji …); test: flow cytometry, PD-L1 expressed on CHO or Raji cells
human His-PD-L1 [4] = target: T2, human His-PD-L1; test: ELISA: plate coated with human His-PD-L1, antibody titrated, goat anti-human IgG Fc HRP, OD450
Method: Briefly, 100 μl anti-PD-L1 antibody at different concentrations was incubated in each well of 96 well plate pre-coated with human His-PD-L1, and then goat anti-human IgG Fc HRP was added and analyzed by coloring reaction of HRP with its substrate.

[5] = target: T1, human PD-L1 expressed on cells (Raji …); test: flow cytometry on Raji-PDL1 cells (cell binding assay), GMFI
Method: Binding capability of the anti-PD-L1 antibody of the present application was further evaluated by using Raji cells overexpressing human PD-L1. Briefly, 50 μl Raji cells overexpressing human PD-L1 were seeded into 96 well plate at a concentration of 2*10⁵ cells/well. […] Then the cells were washed twice by FACS buffer and supplemented with 100 μl PE-anti-hu IgG, followed by incubation on ice for 1 hour. After incubation, the cells in each well were collected and resuspended with 65 μl FACS buffer for analysis by flow cytometry.

human His-PD-L1 [6] = target: T2, human His-PD-L1; test: ELISA blocking assay: antibody titrated together with Biotin-PD-1 on coated human His-PD-L1, Streptavidin-HRP, OD450; remark: listed apart in the source
[7] = target: T1, human PD-L1 expressed on cells (Raji …); test: flow cytometry on CHOK1-PDL1 cells (cell binding assay), GMFI
human His-PD-L1 [8] = target: T2, human His-PD-L1; test: ELISA blocking assay: antibody titrated together with Biotin-PD-1 on coated human His-PD-L1, Streptavidin-HRP, OD450; remark: listed apart in the source
[9] = target: T1, human PD-L1 expressed on cells (Raji …); test: cell-based or functional assay; remark: listed apart in the source
[10] = target: T1, human PD-L1 expressed on cells (Raji …); test: flow cytometry on CHOK1-PDL1 cells (cell binding assay), GMFI; remark: listed apart in the source
human His-PD-L1 [11] = target: T2, human His-PD-L1; test: ELISA blocking assay: antibody titrated together with Biotin-PD-1 on coated human His-PD-L1, Streptavidin-HRP, OD450; remark: listed apart in the source

T1 sequence (Q9NZQ7 19-290): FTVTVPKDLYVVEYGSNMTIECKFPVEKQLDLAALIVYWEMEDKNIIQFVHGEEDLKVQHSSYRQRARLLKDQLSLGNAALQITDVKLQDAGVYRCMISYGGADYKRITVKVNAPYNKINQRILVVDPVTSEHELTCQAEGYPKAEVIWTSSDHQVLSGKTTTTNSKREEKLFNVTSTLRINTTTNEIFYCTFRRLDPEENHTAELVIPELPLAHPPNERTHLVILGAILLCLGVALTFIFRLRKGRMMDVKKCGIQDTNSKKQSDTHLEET
T2 sequence (Q9NZQ7 19-238 limits assumed): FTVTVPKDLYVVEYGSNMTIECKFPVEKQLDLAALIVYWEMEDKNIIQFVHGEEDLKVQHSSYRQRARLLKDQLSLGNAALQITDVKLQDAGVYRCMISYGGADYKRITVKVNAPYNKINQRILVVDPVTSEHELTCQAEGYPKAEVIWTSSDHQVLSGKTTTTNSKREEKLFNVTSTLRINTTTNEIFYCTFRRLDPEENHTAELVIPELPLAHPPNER

Row | Binder | binding result [3] | binding result (human His-PD-L1 [4]) | also measured
1 | B1 | – | – | EC50 (read off the curve), NFAT-luciferase signal (RLU), CHO-PDL-1 aAPC and Jurkat-PD-1-NFAT [1]: ~0.7 nM
2 | B2 | – | – | IC50 (read off the curve) (human His-PD-L1 [2]): ~0.6 nM
3 | B3 | binds | binds | –
4 | B4 | – | – | EC50 (read off the curve) [5]: ~0.4 nM; IC50 (read off the curve) (human His-PD-L1 [6]): ~0.7 nM
5 | B5 | – | binds | binding result [7]: binds
6 | B6 | binds | binds | –
7 | B7 | – | – | IC50 (read off the curve) (human His-PD-L1 [2]): ~0.8 nM
8 | B8 | binds | binds | –
9 | B9 | – | – | IC50 (read off the curve) (human His-PD-L1 [2]): ~0.8 nM
10 | B10 | binds | binds | –
11 | B11 | – | – | binding result [7]: binds; binding result (human His-PD-L1 [8]): binds
12 | B12 | binds | binds | –
13 | B13 | – | – | EC50 (read off the curve) [7]: ~4 nM
14 | B14 | binds | binds | –
15 | B15 | binds | binds | –
16 | B16 | – | – | EC50 (read off the curve), NFAT-luciferase signal (RLU), CHO-PDL-1 aAPC and Jurkat-PD-1-NFAT [1]: ~0.6 nM
17 | B17 | – | – | EC50 (read off the curve), NFAT-luciferase signal (RLU), CHO-PDL-1 aAPC and Jurkat-PD-1-NFAT [9]: ~0.5 nM; EC50 (read off the curve) [10]: ~3 nM; IC50 (read off the curve) (human His-PD-L1 [11]): ~0.8 nM
18 | B18 | binds | binds | –
19 | B19 | binds | binds | –

— US20260184793A1 (TJ BIOPHARMA SHANGHAI, published 2026)
